According to patent US20250346668A1 (GENOR BIOPHARMA, published 2025):

Target: T1, human CD3e/g antigen (ACRO, catalog number CDG-H52W5) (human, UniProt P07766 23-126; P09693 23-116)
T1 construct: Bought reagent used as the Biacore analyte; also called hCD3e/g
Assay: SPR (Biacore 8K), antibody captured via anti-human Fc
Description: The equilibrium dissociation constant of binding of CD3 antibodies to human CD3e/g antigen (purchased from ACRO, catalog number CDG-H52W5) was determined by kinetic binding method using Biacore 8K (GE) system. Through the capture method, the carboxylated dextran surface of CM5 chip was first activated with NHS (N-hydroxysuccinimide) and EDC (1-(3-dimethylaminopropyl)-3-ethylcarbodiimide hydrochloride), and then added with an anti-human IgG (Fc) antibody, the free amino group of which could form an amide bond with the activated carboxyl group, thereby being fixed on the chip surface. The anti-human IgG (Fc) antibody could bind to the Fc end of CD3 antibodies to capture the antibodies, and then a series of concentrations of antigen were added to obtain the binding and dissociation curves of antibody and antigen, and the corresponding kinetic constants were calculated by Biacore Evaluation software, as shown in the table below.

| Binder | Kd [nM] | koff [s⁻¹] | kon [M⁻¹ s⁻¹] |
| --- | --- | --- | --- |
| hAb008-21 (antibody, V domains shown, Humanized; constant regions not specified) VH: QVQLVQSGAEVKKPGASVKVSCKASGYTFTDYTVNWVRQAPGQRLEWIGYINPFNSYTKYNQKFKDRVTITADTSASTAYMELSSLRSEDTAVYYCANSVSTYWGQGTTVTVSS VL: DVVMTQSPLSLPVTLGQPASISCKSSQSLLDSDGKTYLNWFQQRPGQSPRRLIQLVSKLNSGVPDRFSGSGSGTDFTLKISRVEAEDVGVFYCWQGTHFPRTFGGGTKLEIK | 18.6 | 0.00382 | 205000 |
| hAb008-17 (antibody, V domains shown, Humanized; constant regions not specified) VH: QVQLVQSGAEVKKPGASVKVSCKASGYTFTDYTVNWVRQAPGQRLEWMGYINPFNSYTKYNQKFKDRVTITRDTSASTAYMELSSLRSEDTAVYYCARSVSTYWGQGTTVTVSS VL: DVVMTQSPLSLPVTLGQPASISCKSSQSLLDSDGKTYLNWFQQRPGQSPRRLIQLVSKLNSGVPDRFSGSGSGTDFTLKISRVEAEDVGVFYCWQGTHFPRTFGGGTKLEIK | 7.57 | 0.00126 | 167000 |
| hAb008-18 (antibody, V domains shown, Humanized; constant regions not specified) VH: QVQLVQSGAEVKKPGASVKVSCKASGYTFTDYTVNWVRQAPGQRLEWMGYINPFNSYTKYNQKFKDRVTITRDTSASTAYMELSSLRSEDTAVYYCARSVSTYWGQGTTVTVSS VL: DVVMTQSPLSLPVTLGQPASISCKSSQSLLDSDGKTYLNWLQQRPGQSPRRLIQLVSKLNSGVPDRFSGSGSGTDFTLKISRVEAEDVGVFYCWQGTHFPRTFGGGTKLEIK | 33.9 | 0.00691 | 204000 |
| hAb008-16 (antibody, V domains shown, Humanized; constant regions not specified) VH: QVQLVQSGAEVKKPGASVKVSCKASGYTFTDYTVNWVRQAPGQRLEWMGYINPFNSYTKYNQKFKDRVTITRDTSASTAYMELSSLRSEDTAVYYCARSVSTYWGQGTTVTVSS VL: DVVMTQSPLSLPVTLGQPASISCKSSQSLLDSDGKTYLNWFQQRPGQSPRRLIYLVSKLNSGVPDRFSGSGSGTDFTLKISRVEAEDVGVYYCWQGTHFPRTFGGGTKLEIK | 18.6 | 0.00189 | 101000 |
| hAb001-17 (antibody, V domains shown, Humanized; constant regions not specified) VH: QVQLVQSGAEVKKPGASVKVSCKASGYSFTNYYMHWVRQAPGQRLEWMGWTYPGNNNIKYNEKFKGRVTITRDTSASTAYMELSSLRSEDTAVYYCARDGYGYYFFDYWGQGTLVTVSS VL: DIVMTQSPDSLAVSLGERATINCKSSQSLLNNRTRKNYLAWYQQKPGQPPKLLIYWASTRESGVPDRFSGSGSGTDFTLTISSLQAEDVAVYYCKQSYTLRTFGGGTKLEIK | 15.7 | 0.00452 | 288000 |
| hAb001-31 (antibody, V domains shown, Humanized; constant regions not specified) VH: QVQLVQSGAEVKKPGASVKVSCKASGYSFTNYYMHWVKQAPGQRLEWIGWTYPGNNNIKYNEKFKGRATITADTSASTAYMELSSLRSEDTAVYYCARDGYGYYFFDYWGQGTLVTVSS VL: DIVMTQSPDSLAVSLGERATMSCKSSQSLLNNRTRKNYLAWYQQKPGQPPKLLIYWASTRESGVPDRFSGSGSGTDFTLTISSLQAEDVAVYYCKQSYTLRTFGGGTKLEIK | 19.7 | 0.00624 | 317000 |
| hAb001-32 (antibody, V domains shown, Humanized; constant regions not specified) VH: QVQLVQSGAEVKKPGASVKVSCKASGYSFTNYYMHWVKQAPGQRLEWIGWTYPGNNNIKYNEKFKGRATITADTSASTAYMELSSLRSEDTAVYYCARDGYGYYFFDYWGQGTLVTVSS VL: DIVMTQSPDSLAVSLGERATMSCKSSQSLLNNRTRKNYLAWYQQKPGQPPKLLIYWASTRESGVPDRFTGSGSGTDFTLTISSLQAEDVAVYYCKQSYTLRTFGGGTKLEIK | 16.8 | 0.00497 | 296000 |
| hAb001-29 (antibody, V domains shown, Humanized; constant regions not specified) VH: QVQLVQSGAEVKKPGASVKVSCKASGYSFTNYYMHWVKQAPGQRLEWIGWTYPGNNNIKYNEKFKGRATITADTSASTAYMELSSLRSEDTAVYYCARDGYGYYFFDYWGQGTLVTVSS VL: DIVMTQSPDSLAVSLGERATINCKSSQSLLNNRTRKNYLAWYQQKPGQPPKLLIYWASTRESGVPDRFSGSGSGTDFTLTISSLQAEDVAVYYCKQSYTLRTFGGGTKLEIK | 22.8 | 0.00722 | 316000 |
| hAb001-25 (antibody, V domains shown, Humanized; constant regions not specified) VH: QVQLVQSGAEVKKPGASVKVSCKASGYSFTNYYMHWVRQAPGQRLEWIGWTYPGNNNIKYNEKFKGRATITADTSASTAYMELSSLRSEDTAVYYCARDGYGYYFFDYWGQGTLVTVSS VL: DIVMTQSPDSLAVSLGERATINCKSSQSLLNNRTRKNYLAWYQQKPGQPPKLLIYWASTRESGVPDRFSGSGSGTDFTLTISSLQAEDVAVYYCKQSYTLRTFGGGTKLEIK | 22.6 | 0.00896 | 397000 |
| hAb001-24 (antibody, V domains shown, Humanized; constant regions not specified) VH: QVQLVQSGAEVKKPGASVKVSCKASGYSFTNYYMHWVRQAPGQRLEWIGWTYPGNNNIKYNEKFKGRVTITADTSASTAYMELSSLRSEDTAVYYCARDGYGYYFFDYWGQGTLVTVSS VL: DIVMTQSPDSLAVSLGERATMSCKSSQSLLNNRTRKNYLAWYQQKPGQPPKLLIYWASTRESGVPDRFTGSGSGTDFTLTISSLQAEDVAVYYCKQSYTLRTFGGGTKLEIK | 16.6 | 0.00655 | 394000 |
| hAb001-18 (antibody, V domains shown, Humanized; constant regions not specified) VH: QVQLVQSGAEVKKPGASVKVSCKASGYSFTNYYMHWVRQAPGQRLEWMGWTYPGNNNIKYNEKFKGRVTITRDTSASTAYMELSSLRSEDTAVYYCARDGYGYYFFDYWGQGTLVTVSS VL: DIVMTQSPDSLAVSLGERATINCKSSQSLLNNRTRKNYLAWYQQKPGQPPKLLIYWASTRESGVPDRFTGSGSGTDFTLTISSLQAEDVAVYYCKQSYTLRTFGGGTKLEIK | 35.2 | 0.0121 | 343000 |
| hAb001-30 (antibody, V domains shown, Humanized; constant regions not specified) VH: QVQLVQSGAEVKKPGASVKVSCKASGYSFTNYYMHWVKQAPGQRLEWIGWTYPGNNNIKYNEKFKGRATITADTSASTAYMELSSLRSEDTAVYYCARDGYGYYFFDYWGQGTLVTVSS VL: DIVMTQSPDSLAVSLGERATINCKSSQSLLNNRTRKNYLAWYQQKPGQPPKLLIYWASTRESGVPDRFTGSGSGTDFTLTISSLQAEDVAVYYCKQSYTLRTFGGGTKLEIK | 25.8 | 0.00835 | 324000 |
| hAb001-19 (antibody, V domains shown, Humanized; constant regions not specified) VH: QVQLVQSGAEVKKPGASVKVSCKASGYSFTNYYMHWVRQAPGQRLEWMGWTYPGNNNIKYNEKFKGRVTITRDTSASTAYMELSSLRSEDTAVYYCARDGYGYYFFDYWGQGTLVTVSS VL: DIVMTQSPDSLAVSLGERATMSCKSSQSLLNNRTRKNYLAWYQQKPGQPPKLLIYWASTRESGVPDRFSGSGSGTDFTLTISSLQAEDVAVYYCKQSYTLRTFGGGTKLEIK | 94.5 | 0.0354 | 375000 |
| hAb001-20 (antibody, V domains shown, Humanized; constant regions not specified) VH: QVQLVQSGAEVKKPGASVKVSCKASGYSFTNYYMHWVRQAPGQRLEWMGWTYPGNNNIKYNEKFKGRVTITRDTSASTAYMELSSLRSEDTAVYYCARDGYGYYFFDYWGQGTLVTVSS VL: DIVMTQSPDSLAVSLGERATMSCKSSQSLLNNRTRKNYLAWYQQKPGQPPKLLIYWASTRESGVPDRFTGSGSGTDFTLTISSLQAEDVAVYYCKQSYTLRTFGGGTKLEIK | 10.8 | 0.00303 | 281000 |
